Assay results as given in paper PMC4749091 (The Journal of Experimental Medicine, 2016).

Target: T1, human CD112-Fc fusion protein (human, UniProt Q92692 32-360)
T1 sequence (looked up): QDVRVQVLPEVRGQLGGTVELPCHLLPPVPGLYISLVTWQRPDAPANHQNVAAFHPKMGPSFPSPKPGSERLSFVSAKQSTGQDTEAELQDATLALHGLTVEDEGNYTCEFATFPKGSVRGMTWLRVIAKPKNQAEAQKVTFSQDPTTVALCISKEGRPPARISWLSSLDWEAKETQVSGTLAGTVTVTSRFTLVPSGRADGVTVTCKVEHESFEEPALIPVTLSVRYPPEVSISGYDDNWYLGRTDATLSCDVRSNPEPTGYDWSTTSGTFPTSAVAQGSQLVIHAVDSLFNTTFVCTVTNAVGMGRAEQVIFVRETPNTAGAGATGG
Assay: competition by flow cytometry on protein-coated beads

binding result: binds
B1: human CD226-Fc fusion protein (Fc fusion, UniProt Q15762 19-254, looked up)
chain: EEVLWHTSVPFAENMSLECVYPSMGILTQVEWFKIGTQQDSIAIFSPTHGMVIRKPYAERVYFLNSTMASNNMTLFFRNASEDDVGYYSCSLYTYPQGTWQKVIQVVQSDSFEAAVPSNSHIVSEPGKNVTLTCQPQMTWPVQAVRWEKIQPRQIDLLTYCNLVHGRNFTSKFPRQIVSNCSHGRWSVIVIPDVTVSDSGLYRCYLQASAGENETFVMRLTVAEGKTDNQYTLFVA
